# Data published in US20180155451A1 (published 2018).
# T1: FcγRIIa R (FcγRIIa, allotype R, Arg at position 131), extracellular domain with C-terminal His tag (human, UniProt P12318 34-217)
# T1 construct: extracellular domain; soluble receptor used as Biacore analyte; also called 2aR; FcgRIIa R
# T1 sequence (looked up): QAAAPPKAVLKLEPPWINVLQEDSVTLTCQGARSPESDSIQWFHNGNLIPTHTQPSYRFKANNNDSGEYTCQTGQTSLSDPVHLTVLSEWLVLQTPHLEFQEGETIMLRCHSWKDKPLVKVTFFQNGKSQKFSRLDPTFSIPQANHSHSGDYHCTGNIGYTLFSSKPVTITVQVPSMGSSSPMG
# T2: FcγRIIb, extracellular domain with C-terminal His tag (human, UniProt P31994 43-217)
# T2 construct: extracellular domain; soluble receptor used as Biacore analyte; also called 2b; FcgRIIb
# T2 sequence (looked up): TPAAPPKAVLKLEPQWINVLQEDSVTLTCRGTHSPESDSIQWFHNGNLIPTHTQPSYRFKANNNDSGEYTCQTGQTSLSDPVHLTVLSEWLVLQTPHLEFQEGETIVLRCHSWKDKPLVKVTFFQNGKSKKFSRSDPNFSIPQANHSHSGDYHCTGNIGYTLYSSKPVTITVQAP
# Columns and labels:
# [1] = target: T1, FcγRIIa R (FcγRIIa, allotype R, Arg at …); assay: Biacore SPR; binding relative to GpH7-A5/GpH7-B3/GpL16-k0 (=100)
# [2] = target: T2, FcγRIIb, extracellular domain with …; assay: as above
# [3] = target: T1, FcγRIIa R (FcγRIIa, allotype R, Arg at …); assay: Biacore SPR; He/Con_2aR divided by He/Con_2b (FcγRIIb)
# Protocol: The heterodimerized antibodies He Abs in which one of the H chains was introduced with an alteration were assayed for their binding activities to each activating FcγR and inhibitory FcγR according to the method described in Example 4. […] The activating FcγRs in FIGS. 26, 27, 28, and 29 are FcγRIa, FcγRIIa (R), FcγRIIa (H), and FcγRIIIa, respectively.
# Analysis of interaction between objective antibody and the FcγR was carried out using Biacore T100 (GE Healthcare). HBS-EP+ (GE Healthcare) was used as the running buffer, and the measurement temperature was set to 25° C. Chips produced by immobilizing the antigen peptide by the amine coupling method to a Series S Sencor Chip CM5 (GE Healthcare), or alternatively, chips produced by allowing preliminarily biotinylated antigen peptides to interact with and immobilize onto a Series S Sensor Chip SA (certified) (GE Healthcare) were used. Antibodies of interest were captured onto an antigen peptide-immobilized chip, and allowed to interact to each FcγR diluted with running buffer. To regenerate and repeatedly use the chip, the antibodies captured on the chip were washed off by reacting 10 mM glycine-HCl, pH 1.5.
Binder,He/Con_2aR (IIaR binding) [1],He/Con_2b (IIb binding) [2],IIaR/IIb (He_2aR/2b) [3]
"heterodimerized antibody GpH7-A5/GpH7-B3 variant P271_01G/GpL16-k0 (antibody, human IgG1, kappa, He Ab: anti-glypican-3 IgG1, alteration in one H chain only; also called He Ab) heavy 1: not shown heavy 2: not shown light: DIVMTQSPLSLPVTPGEPASISCQASESLVHSNRNTYLHWYLQKPGQSPQLLIYKVSNRFSGVPDRFSGSGSGTDFTLKISRVEAEDVGVYYCSQNTHVPPTFGQGTKVEIERTVAAPSVFIFPPSDEQLKSGTASVVCLLNNFYPREAKVQWKVDNALQSGNSQESVTEQDSKDSTYSLSSTLTLSKADYEKHKVYACEVTHQGLSSPVTKSFNRGEC",144 % of control,193 % of control,0.75
"heterodimerized antibody GpH7-A5/GpH7-B3 variant S239_09D/GpL16-k0 (antibody, human IgG1, kappa, He Ab: anti-glypican-3 IgG1, alteration in one H chain only; also called He Ab) heavy 1: not shown heavy 2: not shown light: DIVMTQSPLSLPVTPGEPASISCQASESLVHSNRNTYLHWYLQKPGQSPQLLIYKVSNRFSGVPDRFSGSGSGTDFTLKISRVEAEDVGVYYCSQNTHVPPTFGQGTKVEIERTVAAPSVFIFPPSDEQLKSGTASVVCLLNNFYPREAKVQWKVDNALQSGNSQESVTEQDSKDSTYSLSSTLTLSKADYEKHKVYACEVTHQGLSSPVTKSFNRGEC",137 % of control,206 % of control,0.66
"heterodimerized antibody GpH7-A5/GpH7-B3 variant S239_10E/GpL16-k0 (antibody, human IgG1, kappa, He Ab: anti-glypican-3 IgG1, alteration in one H chain only; also called He Ab) heavy 1: not shown heavy 2: not shown light: DIVMTQSPLSLPVTPGEPASISCQASESLVHSNRNTYLHWYLQKPGQSPQLLIYKVSNRFSGVPDRFSGSGSGTDFTLKISRVEAEDVGVYYCSQNTHVPPTFGQGTKVEIERTVAAPSVFIFPPSDEQLKSGTASVVCLLNNFYPREAKVQWKVDNALQSGNSQESVTEQDSKDSTYSLSSTLTLSKADYEKHKVYACEVTHQGLSSPVTKSFNRGEC",135 % of control,181 % of control,0.75
"heterodimerized antibody GpH7-A5/GpH7-B3 variant S267_03V/GpL16-k0 (antibody, human IgG1, kappa, He Ab: anti-glypican-3 IgG1, alteration in one H chain only; also called He Ab) heavy 1: not shown heavy 2: not shown light: DIVMTQSPLSLPVTPGEPASISCQASESLVHSNRNTYLHWYLQKPGQSPQLLIYKVSNRFSGVPDRFSGSGSGTDFTLKISRVEAEDVGVYYCSQNTHVPPTFGQGTKVEIERTVAAPSVFIFPPSDEQLKSGTASVVCLLNNFYPREAKVQWKVDNALQSGNSQESVTEQDSKDSTYSLSSTLTLSKADYEKHKVYACEVTHQGLSSPVTKSFNRGEC",116 % of control,192 % of control,0.61
"heterodimerized antibody GpH7-A5/GpH7-B3 variant S267_02A/GpL16-k0 (antibody, human IgG1, kappa, He Ab: anti-glypican-3 IgG1, alteration in one H chain only; also called He Ab) heavy 1: not shown heavy 2: not shown light: DIVMTQSPLSLPVTPGEPASISCQASESLVHSNRNTYLHWYLQKPGQSPQLLIYKVSNRFSGVPDRFSGSGSGTDFTLKISRVEAEDVGVYYCSQNTHVPPTFGQGTKVEIERTVAAPSVFIFPPSDEQLKSGTASVVCLLNNFYPREAKVQWKVDNALQSGNSQESVTEQDSKDSTYSLSSTLTLSKADYEKHKVYACEVTHQGLSSPVTKSFNRGEC",155 % of control,243 % of control,0.64
"heterodimerized antibody GpH7-A5/GpH7-B3 variant S267_04F/GpL16-k0 (antibody, human IgG1, kappa, He Ab: anti-glypican-3 IgG1, alteration in one H chain only; also called He Ab) heavy 1: not shown heavy 2: not shown light: DIVMTQSPLSLPVTPGEPASISCQASESLVHSNRNTYLHWYLQKPGQSPQLLIYKVSNRFSGVPDRFSGSGSGTDFTLKISRVEAEDVGVYYCSQNTHVPPTFGQGTKVEIERTVAAPSVFIFPPSDEQLKSGTASVVCLLNNFYPREAKVQWKVDNALQSGNSQESVTEQDSKDSTYSLSSTLTLSKADYEKHKVYACEVTHQGLSSPVTKSFNRGEC",37.8 % of control,48 % of control,0.79
"heterodimerized antibody GpH7-A5/GpH7-B3 variant S267_07I/GpL16-k0 (antibody, human IgG1, kappa, He Ab: anti-glypican-3 IgG1, alteration in one H chain only; also called He Ab) heavy 1: not shown heavy 2: not shown light: DIVMTQSPLSLPVTPGEPASISCQASESLVHSNRNTYLHWYLQKPGQSPQLLIYKVSNRFSGVPDRFSGSGSGTDFTLKISRVEAEDVGVYYCSQNTHVPPTFGQGTKVEIERTVAAPSVFIFPPSDEQLKSGTASVVCLLNNFYPREAKVQWKVDNALQSGNSQESVTEQDSKDSTYSLSSTLTLSKADYEKHKVYACEVTHQGLSSPVTKSFNRGEC",111 % of control,192 % of control,0.58
"heterodimerized antibody GpH7-A5/GpH7-B3 variant S267_06M/GpL16-k0 (antibody, human IgG1, kappa, He Ab: anti-glypican-3 IgG1, alteration in one H chain only; also called He Ab) heavy 1: not shown heavy 2: not shown light: DIVMTQSPLSLPVTPGEPASISCQASESLVHSNRNTYLHWYLQKPGQSPQLLIYKVSNRFSGVPDRFSGSGSGTDFTLKISRVEAEDVGVYYCSQNTHVPPTFGQGTKVEIERTVAAPSVFIFPPSDEQLKSGTASVVCLLNNFYPREAKVQWKVDNALQSGNSQESVTEQDSKDSTYSLSSTLTLSKADYEKHKVYACEVTHQGLSSPVTKSFNRGEC",122 % of control,210 % of control,0.58
"heterodimerized antibody GpH7-A5/GpH7-B3 variant S267_09D/GpL16-k0 (antibody, human IgG1, kappa, He Ab: anti-glypican-3 IgG1, alteration in one H chain only; also called He Ab) heavy 1: not shown heavy 2: not shown light: DIVMTQSPLSLPVTPGEPASISCQASESLVHSNRNTYLHWYLQKPGQSPQLLIYKVSNRFSGVPDRFSGSGSGTDFTLKISRVEAEDVGVYYCSQNTHVPPTFGQGTKVEIERTVAAPSVFIFPPSDEQLKSGTASVVCLLNNFYPREAKVQWKVDNALQSGNSQESVTEQDSKDSTYSLSSTLTLSKADYEKHKVYACEVTHQGLSSPVTKSFNRGEC",173 % of control,310 % of control,0.56

# The remaining lines, values ahead:
He/Con_2aR (IIaR binding) [1],He/Con_2b (IIb binding) [2],IIaR/IIb (He_2aR/2b) [3],Binder
135 % of control,218 % of control,0.62,"heterodimerized antibody GpH7-A5/GpH7-B3 variant S267_19Q/GpL16-k0 (antibody, human IgG1, kappa, He Ab: anti-glypican-3 IgG1, alteration in one H chain only; also called He Ab) heavy 1: not shown heavy 2: not shown light: DIVMTQSPLSLPVTPGEPASISCQASESLVHSNRNTYLHWYLQKPGQSPQLLIYKVSNRFSGVPDRFSGSGSGTDFTLKISRVEAEDVGVYYCSQNTHVPPTFGQGTKVEIERTVAAPSVFIFPPSDEQLKSGTASVVCLLNNFYPREAKVQWKVDNALQSGNSQESVTEQDSKDSTYSLSSTLTLSKADYEKHKVYACEVTHQGLSSPVTKSFNRGEC"
44.4 % of control,57.6 % of control,0.77,"heterodimerized antibody GpH7-A5/GpH7-B3 variant V266_04F/GpL16-k0 (antibody, human IgG1, kappa, He Ab: anti-glypican-3 IgG1, alteration in one H chain only; also called He Ab) heavy 1: not shown heavy 2: not shown light: DIVMTQSPLSLPVTPGEPASISCQASESLVHSNRNTYLHWYLQKPGQSPQLLIYKVSNRFSGVPDRFSGSGSGTDFTLKISRVEAEDVGVYYCSQNTHVPPTFGQGTKVEIERTVAAPSVFIFPPSDEQLKSGTASVVCLLNNFYPREAKVQWKVDNALQSGNSQESVTEQDSKDSTYSLSSTLTLSKADYEKHKVYACEVTHQGLSSPVTKSFNRGEC"
150 % of control,251 % of control,0.6,"heterodimerized antibody GpH7-A5/GpH7-B3 variant V266_06M/GpL16-k0 (antibody, human IgG1, kappa, He Ab: anti-glypican-3 IgG1, alteration in one H chain only; also called He Ab) heavy 1: not shown heavy 2: not shown light: DIVMTQSPLSLPVTPGEPASISCQASESLVHSNRNTYLHWYLQKPGQSPQLLIYKVSNRFSGVPDRFSGSGSGTDFTLKISRVEAEDVGVYYCSQNTHVPPTFGQGTKVEIERTVAAPSVFIFPPSDEQLKSGTASVVCLLNNFYPREAKVQWKVDNALQSGNSQESVTEQDSKDSTYSLSSTLTLSKADYEKHKVYACEVTHQGLSSPVTKSFNRGEC"
175 % of control,379 % of control,0.46,"heterodimerized antibody GpH7-A5/GpH7-B3 variant S267_10E/GpL16-k0 (antibody, human IgG1, kappa, He Ab: anti-glypican-3 IgG1, alteration in one H chain only; also called He Ab) heavy 1: not shown heavy 2: not shown light: DIVMTQSPLSLPVTPGEPASISCQASESLVHSNRNTYLHWYLQKPGQSPQLLIYKVSNRFSGVPDRFSGSGSGTDFTLKISRVEAEDVGVYYCSQNTHVPPTFGQGTKVEIERTVAAPSVFIFPPSDEQLKSGTASVVCLLNNFYPREAKVQWKVDNALQSGNSQESVTEQDSKDSTYSLSSTLTLSKADYEKHKVYACEVTHQGLSSPVTKSFNRGEC"
81.9 % of control,104 % of control,0.78,"heterodimerized antibody GpH7-A5/GpH7-B3 variant S267_14T/GpL16-k0 (antibody, human IgG1, kappa, He Ab: anti-glypican-3 IgG1, alteration in one H chain only; also called He Ab) heavy 1: not shown heavy 2: not shown light: DIVMTQSPLSLPVTPGEPASISCQASESLVHSNRNTYLHWYLQKPGQSPQLLIYKVSNRFSGVPDRFSGSGSGTDFTLKISRVEAEDVGVYYCSQNTHVPPTFGQGTKVEIERTVAAPSVFIFPPSDEQLKSGTASVVCLLNNFYPREAKVQWKVDNALQSGNSQESVTEQDSKDSTYSLSSTLTLSKADYEKHKVYACEVTHQGLSSPVTKSFNRGEC"
120 % of control,152 % of control,0.79,"heterodimerized antibody GpH7-A5/GpH7-B3 variant V266_07I/GpL16-k0 (antibody, human IgG1, kappa, He Ab: anti-glypican-3 IgG1, alteration in one H chain only; also called He Ab) heavy 1: not shown heavy 2: not shown light: DIVMTQSPLSLPVTPGEPASISCQASESLVHSNRNTYLHWYLQKPGQSPQLLIYKVSNRFSGVPDRFSGSGSGTDFTLKISRVEAEDVGVYYCSQNTHVPPTFGQGTKVEIERTVAAPSVFIFPPSDEQLKSGTASVVCLLNNFYPREAKVQWKVDNALQSGNSQESVTEQDSKDSTYSLSSTLTLSKADYEKHKVYACEVTHQGLSSPVTKSFNRGEC"
50.6 % of control,65.9 % of control,0.77,"heterodimerized antibody GpH7-A5/GpH7-B3 variant S267_16H/GpL16-k0 (antibody, human IgG1, kappa, He Ab: anti-glypican-3 IgG1, alteration in one H chain only; also called He Ab) heavy 1: not shown heavy 2: not shown light: DIVMTQSPLSLPVTPGEPASISCQASESLVHSNRNTYLHWYLQKPGQSPQLLIYKVSNRFSGVPDRFSGSGSGTDFTLKISRVEAEDVGVYYCSQNTHVPPTFGQGTKVEIERTVAAPSVFIFPPSDEQLKSGTASVVCLLNNFYPREAKVQWKVDNALQSGNSQESVTEQDSKDSTYSLSSTLTLSKADYEKHKVYACEVTHQGLSSPVTKSFNRGEC"
